Data as given in US20240166765A1 (ICONIC THERAPEUTICS, published 2024).
Read-outs that look alike come from different tables or passages of the source.

T1: h1-107_r (human/rat chimera)
T1 construct: on HEK293 cells
T1 chain: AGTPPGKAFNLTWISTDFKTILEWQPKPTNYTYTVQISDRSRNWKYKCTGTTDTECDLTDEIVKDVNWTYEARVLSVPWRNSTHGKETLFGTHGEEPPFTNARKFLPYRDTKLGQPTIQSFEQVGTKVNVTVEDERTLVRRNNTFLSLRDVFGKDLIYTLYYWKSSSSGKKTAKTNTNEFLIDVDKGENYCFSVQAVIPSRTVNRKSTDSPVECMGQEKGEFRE

T2: hTF_N171H_T197K (human, UniProt P13726 33-251)
T2 construct: on HEK293 cells
T2 chain: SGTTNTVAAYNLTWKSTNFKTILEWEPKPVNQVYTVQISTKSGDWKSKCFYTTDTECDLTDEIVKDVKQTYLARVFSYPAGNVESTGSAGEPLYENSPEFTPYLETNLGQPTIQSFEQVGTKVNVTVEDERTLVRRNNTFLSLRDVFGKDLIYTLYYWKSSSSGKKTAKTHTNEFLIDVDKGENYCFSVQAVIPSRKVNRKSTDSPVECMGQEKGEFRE

T3: cynomolgus TF ECD-His6 (cynomolgus monkey (Macaca fascicularis))
T3 construct: made in Expi293 cells; also called TF-His; cTF
T3 chain: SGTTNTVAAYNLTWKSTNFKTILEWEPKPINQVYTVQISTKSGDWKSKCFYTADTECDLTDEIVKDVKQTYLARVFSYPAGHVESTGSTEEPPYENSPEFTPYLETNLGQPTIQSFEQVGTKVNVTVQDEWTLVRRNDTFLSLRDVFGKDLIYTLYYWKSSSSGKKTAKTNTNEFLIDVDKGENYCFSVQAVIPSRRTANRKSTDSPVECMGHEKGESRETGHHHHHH

T4: hTF_N171H_T197K (human, UniProt P13726 33-251)
T4 construct: the entry already holds N171H and T197K; on transfected HEK293 cells
T4 chain: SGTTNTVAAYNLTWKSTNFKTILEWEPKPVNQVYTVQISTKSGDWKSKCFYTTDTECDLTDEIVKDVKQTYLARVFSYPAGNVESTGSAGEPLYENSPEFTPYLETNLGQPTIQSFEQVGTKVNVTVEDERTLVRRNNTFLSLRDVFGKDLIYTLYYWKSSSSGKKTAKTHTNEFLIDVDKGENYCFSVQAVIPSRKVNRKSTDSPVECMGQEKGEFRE


Experiments:
[1] = biological target: T5, h1-77_r (human/rat chimera); assay: live cell staining, flow cytometry
T5 construct: Human TF with ECD residues 1-77 replaced by the rat segment; on HEK293 cells

[2] = biological target: T6, h78-107_r.v2 (human/rat chimera); assay: live cell staining, flow cytometry
T6 construct: on HEK293 cells

[3] = biological target: T1, h1-107_r; assay: live cell staining, flow cytometry
[4] = biological target: T7, rTF (rat TF) (rat, UniProt P42533 29-252); assay: live cell staining, flow cytometry
T7 construct: Expressed on the surface of transfected HEK293 cells

[5] = biological target: T8, hTF (human, UniProt P13726 33-251); assay: live cell staining, flow cytometry
T8 construct: also called human TF; human Tissue Factor

[6] = biological target: T2, hTF_N171H_T197K; assay: live cell staining, flow cytometry
[7] = biological target: T9, r141-194_h (rat/human chimera, UniProt P42533 29-252); assay: live cell staining, flow cytometry
T9 construct: on HEK293 cells

[8] = biological target: T7, rTF (rat TF); assay: live cell staining, flow cytometry; remark: listed apart in the source
[9] = biological target: T10, human Tissue Factor on MDA-MB-231 cells (human, UniProt P13726 33-295); assay: cell-based or functional assay
[10] = biological target: T10, human Tissue Factor on MDA-MB-231 cells; assay: flow cytometry, MDA-MB-231 cells; binding of 20 nM FVII-Fc-Alexa488 (competitor) left at 28 nM Ab
[11] = biological target: T10, human Tissue Factor on MDA-MB-231 cells; assay: flow cytometry, MDA-MB-231 cells; binding of 20 nM FVII-Fc-Alexa488 (competitor) left at 9.25 nM Ab
[12] = biological target: T10, human Tissue Factor on MDA-MB-231 cells; assay: flow cytometry, MDA-MB-231 cells; binding of 20 nM FVII-Fc-Alexa488 (competitor) left at 250 nM Ab
[13] = biological target: T10, human Tissue Factor on MDA-MB-231 cells; assay: cell-based or functional assay; remark: listed apart in the source
[14] = biological target: T10, human Tissue Factor on MDA-MB-231 cells; assay: flow cytometry, MDA-MB-231 cells; binding of 20 nM FVII-Fc-Alexa488 (competitor) left at 83 nM Ab
[15] = biological target: Relipidated TF (UniProt P13726 33-295, limits assumed); assay: cell-based or functional assay
[16] = biological target: T3, cynomolgus TF ECD-His6; assay: SPR (Biacore), antibody on chip, TF-His titrated
[17] = biological target: T11, human TF ECD-His6 (human, UniProt P13726 33-251); assay: SPR (Biacore), antibody on chip, TF-His titrated
T11 construct: made in Expi293 cells; the entry holds the ECD with the C-terminal TG-His6; also called TF-His; hTF

[18] = biological target: T3, cynomolgus TF ECD-His6; assay: BLI (ForteBio Octet)
[19] = biological target: T12, mouse TF ECD-His6 (mouse, UniProt P20352 29-251); assay: BLI (ForteBio Octet)
T12 construct: made in Expi293 cells; also called TF-His; mTF

[20] = biological target: T11, human TF ECD-His6; assay: BLI (ForteBio Octet)
[21] = biological target: rTF (rat TF) on HEK293 cells (rat, UniProt P42533 29-252); assay: live cell staining of transfected HEK293, flow cytometry
[22] = biological target: T4, hTF_N171H_T197K; assay: as above
[23] = biological target: T12, mouse TF ECD-His6; assay: SPR (Biacore), antibody on chip, TF-His titrated

rTF (rat TF) on HEK293 cells, sequence (P42533 29-252): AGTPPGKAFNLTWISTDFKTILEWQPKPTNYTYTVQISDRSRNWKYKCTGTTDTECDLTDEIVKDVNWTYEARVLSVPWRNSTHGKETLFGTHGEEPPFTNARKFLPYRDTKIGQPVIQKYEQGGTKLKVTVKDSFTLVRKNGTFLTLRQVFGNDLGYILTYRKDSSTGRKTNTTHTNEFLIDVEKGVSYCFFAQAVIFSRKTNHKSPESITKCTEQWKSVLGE

Binder	% IL8, 2.56 nM Ab [9]	% IL8, 6.4 nM Ab [9]	% IL8, 16 nM Ab [9]	% IL8, 40 nM Ab [9]	% IL8, 100 nM Ab [9]	% FVIIa [10]	% FVIIa [11]	% FVIIa [12]	% FXa, 12.5 nM Ab [13]	% FXa, 25 nM Ab [13]	% FXa, 50 nM Ab [13]	% FXa, 100 nM Ab [13]	% FVIIa [14]	Kd [19]	other results
1F (antibody, human IgG1, V domains shown, Human IgG1) VH: EVQLLESGGGLVQPGGSLRLSCAASGFTFSDYAMGWVRQAPGKGLEWVSTISGSGGLTYYADSVKGRFTISRDNSKNTLYLQMNSLRAEDTAVYYCAKAPYGYYMDVWGKGTTVTVSS VL: not shown	–	–	–	–	–	–	–	–	–	–	–	–	–	–	Percent antibody binding to TF construct relative to hTF [1]: 0%; Percent antibody binding to TF construct relative to hTF [2]: 0%; Percent antibody binding to TF construct relative to hTF [3]: 0%; Percent antibody binding to TF construct relative to hTF [4]: 0%; Percent antibody binding to TF construct relative to hTF [5]: 100%; Percent antibody binding to TF construct relative to hTF [6]: 83%; Percent antibody binding to TF construct relative to hTF [7]: 0%; Percent antibody binding to TF construct relative to hTF [8]: 0%
29D (antibody, V domains shown, Human anti-TF IgG1) VH: QVQLVESGGGVVQPGRSLRLSCAASGFTFHSRGMHWVRQAPGKGLEWVAVITYDGINKYYADSVEGRFTISRDNSKNTLYLQMNSLRAEDTAVYYCARDGVYYGVYDYWGQGTLVTVSS VL: not shown	27%	6%	2%	2%	1%	4%	6%	3%	85%	77%	75%	75%	3%	–	–
29E (antibody, human IgG1, V domains shown, Human IgG1) VH: QVQLVESGGGVVQPGRSLRLSCAASGFTFRSYGMHWVRQAPGKGLEWVAVITYDGINKYYADSVEGRFTISRDNSKNTLYLQMNSLRAEDTAVYYCARDGVYYGVYDYWGQGTLVTVSS VL: not shown	–	–	–	–	–	–	–	–	–	–	–	–	–	–	Percent antibody binding to TF construct relative to hTF [1]: 0%; Percent antibody binding to TF construct relative to hTF [2]: 0%; Percent antibody binding to TF construct relative to hTF [3]: 0%; Percent antibody binding to TF construct relative to hTF [4]: 0%; Percent antibody binding to TF construct relative to hTF [5]: 100%; Percent antibody binding to TF construct relative to hTF [6]: 98%; Percent antibody binding to TF construct relative to hTF [7]: 0%; Percent antibody binding to TF construct relative to hTF [8]: 0%
29E (antibody, V domains shown, Human anti-TF IgG1) VH: QVQLVESGGGVVQPGRSLRLSCAASGFTFRSYGMHWVRQAPGKGLEWVAVITYDGINKYYADSVEGRFTISRDNSKNTLYLQMNSLRAEDTAVYYCARDGVYYGVYDYWGQGTLVTVSS VL: not shown	33%	5%	2%	2%	2%	3%	5%	2%	81%	68%	63%	66%	2%	–	TGA % ETP, 10 nM Ab, 10 min pre-incubation [15]: 73%; TGA % ETP, 50 nM Ab, 10 min pre-incubation [15]: 68%; TGA % ETP, 100 nM Ab, 10 min pre-incubation [15]: 64%; TGA % Peak IIa, 10 nM Ab, 10 min pre-incubation [15]: 30%; TGA % Peak IIa, 50 nM Ab, 10 min pre-incubation [15]: 27%; TGA % Peak IIa, 100 nM Ab, 10 min pre-incubation [15]: 26%; TGA ETP, 10 nM Ab, 10 min pre-incubation [15]: 1250 nM·min; TGA ETP, 50 nM Ab, 10 min pre-incubation [15]: 1170 nM·min; TGA ETP, 100 nM Ab, 10 min pre-incubation [15]: 1100 nM·min; TGA Lag Time, 10 nM Ab, 10 min pre-incubation [15]: 10.4 min; TGA Lag Time, 50 nM Ab, 10 min pre-incubation [15]: 14.2 min; TGA Lag Time, 100 nM Ab, 10 min pre-incubation [15]: 15.1 min; TGA Peak IIa, 10 nM Ab, 10 min pre-incubation [15]: 78 nM; TGA Peak IIa, 50 nM Ab, 10 min pre-incubation [15]: 70 nM; TGA Peak IIa, 100 nM Ab, 10 min pre-incubation [15]: 68 nM; TGA ttPeak, 10 nM Ab, 10 min pre-incubation [15]: 20.2 min; TGA ttPeak, 50 nM Ab, 10 min pre-incubation [15]: 24.3 min; TGA ttPeak, 100 nM Ab, 10 min pre-incubation [15]: 25.3 min
25A3 (antibody, human IgG1, kappa, V domains shown, human IgG1) VH: QVQLVQSGAEVKKPGASVKVSCKASGYTFDVYGISWVRQAPGQGLEWMGWIAPYSGNTNYAQKLQGRVTMTTDTSTSTAYMELRSLRSDDTAVYYCARDAGTYSPFGYGMDVWGQGTTVTVSS VL: DIQMTQSPSTLSASVGDRVTITCQASQSINNWLAWYQQKPGKAPKLLIYKAYNLESGVPSRFSGSGSGTEFTLTISSLQPDDFATYYCQLFQSLPPFTFGGGTKVEIKR	–	–	–	–	–	–	–	–	–	–	–	–	–	131 nM	Kd [16]: 0.21 nM; Kd [17]: 0.36 nM; Kd [18]: 1.36 nM; Kd [20]: 1.67 nM; binding result [21]: no binding (tested: 15 µg/ml (100 nM)); binding result [22]: no binding
54E (antibody, V domains shown, Human anti-TF IgG1) VH: QVQLVQSGAEVKKPGASVKVSCKASGYTFANYYMHWVRQAPGQGLEWMGIINPSGGITVYAQKFQGRVTMTRDTSTSTVYMELSSLRSEDTAVYYCARGGSKVAALAFDIWGQGTMVTVSS VL: DIQMTQSPSSLSASVGDRVTITCQASQDISNSLNWYQQKPGKAPKLLIYDASNLETGVPSRFSGSRSGTDFTFTISSLQPEDIATYYCQQYNFHPLTFGGGTKVEIK	48%	8%	3%	2%	2%	3%	11%	2%	53%	44%	41%	42%	3%	–	–
43D7 (antibody, human IgG1, kappa, V domains shown, human IgG1) VH: QVQLQQWGAGLLKPSETLSLTCAVYGGSLSGYYWSWIRQPPGKGLEWIGEIGASGSTRYNPSLKSRVTISVDTSKNQFSLKLSSVTAADTAVYYCARDTPYYYEGGYYYYMDVWGKGTTVTVSS VL: EIVLTQSPGTLSLSPGERATLSCRASDSVDSSYLAWYQQKPGQAPRLLIYGAFSRANGIPDRFSGSGSGTDFTLTISRLEPEDFAVYYCQQAGVVPYTFGGGTKVEIKR	–	–	–	–	–	–	–	–	–	–	–	–	–	41.4 nM	Kd [23]: 21 nM
43D8 (antibody, human IgG1, kappa, V domains shown, human IgG1; also called 43D8 mAb; test article) VH: QVQLQQWGAGLLKPSETLSLTCAVYGGSLSGYYWSWIRQPPGKGLEWIGEIGASGSTRYNPSLKSRVTISVDTSKNQFSLKLSSVTAADTAVYYCARDTPYYYEGGYYYYMDVWGKGTTVTVSS VL: EIVLTQSPGTLSLSPGERATLSCRASQSVSSSFLAWYQQKPGQAPRLLIYGAYSRATGIPDRFSGSGSGTDFTLTISRLEPEDFAVYYCQQAGVVPYTFGGGTKVEIKR	–	–	–	–	–	–	–	–	–	–	–	–	–	6.12 nM	Kd [23]: 2.4 nM
